{
  "source": "patent CN116472284A",
  "target": "SARS-CoV-2 spike on ZsGreen SARS-CoV-2-pseudotyped lentivirus (SARS-CoV-2) (UniProt P0DTC2)",
  "test": "cell-based or functional assay",
  "data": [
    {"substance": "Nb6-tri (trivalent Nb6 with two 20 amino acid linkers) (VHH)", "values": [
      {"measurement": "IC50, inhibition of SARS-CoV-2 pseudotyped lentivirus infection", "result": 1.2, "unit": "nM"},
      {"measurement": "fold gain of inhibitory activity against monovalent Nb6, pseudovirus", "result": 2000, "unit": "fold"}
    ]}
  ]
}
